Results: the supplement of paper PMC9170038

Legend:
[1] = system: MS2 coat protein; experiment: apparent KD of MS2 coat protein, switch ON state; designed switch direction (-1 OFF switch, 1 ON switch): -1; higher = weaker reporter binding; settings: FMN input: 0 or 200 uM; Eterna round: R93 (includes R88 designs)
How it was run: (§1)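 SNAP-549-labelled MS2 coat protein was titrated onto designed RNA switches that had been transcribed on-chip from Illumina sequencing clusters. Amounts doubled from 0.7 or 1.5 nM to 3 µM in 100 mM Tris-HCl pH 7.5, 80 mM KCl, 4 mM MgCl2, with constant ligand or without. Apparent KD is the median per design of normalised cluster binding-curve fits.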

[2] = system: MS2 coat protein; experiment: apparent KD of MS2 coat protein, switch OFF state (with FMN for OFF switches, without FMN for ON switches); designed switch direction (-1 OFF switch, 1 ON switch): -1; higher = weaker reporter binding; settings: FMN input: 0 or 200 uM; Eterna round: R93 (includes R88 designs)
How it was run: as §1

[3] = system: MS2 coat protein; experiment: apparent KD of MS2 coat protein; designed switch direction (-1 OFF switch, 1 ON switch): 1; higher = weaker reporter binding
How it was run: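 SNAP-549-labelled MS2 coat protein was titrated, doubling from 0.7 or 1.5 nM to 3 µM, over designed RNA switches transcribed on Illumina chips by stalled E. coli RNA polymerase. Runs were done without input, with 200 uM small-molecule ligand, or with an oligonucleotide input. Apparent KD is the per-design median over clusters of curve-fitted normalised fluorescence.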

[4] = input ligand: microRNA oligo, concentration not stated
[5] = Eterna round: R95, input ligand: FMN 200 uM
[6] = Eterna round: R95, input ligand: microRNA oligo, concentration not stated
[7] = Eterna round: R95, input ligand: none

Row | Sequence | apparent KD of MS2 coat protein ([3]; input ligand: FMN 200 uM) [nM] | apparent KD of MS2 coat protein [3, 4] [nM] | apparent KD of MS2 coat protein ([3]; input ligand: none) [nM] | further results
1 | AAGAAGUUAGGAUAUGCUGCUCGUCACAAAAGUGAUGAGUAGCAGAAGGGACAUGAGGAUCACCCAUGUAAAGA [JL eternac mod 5] |  |  |  | apparent KD of MS2 coat protein [1]: 36.7 nM; apparent KD of MS2 coat protein [2]: 24.1 nM
2 | AAAAAGUCAGGAUAUACGUACAUGUCGAAAGACGUGAAGGGACAUGAGGAUCACCCAUGUAGAAGGGACAAGAA [Mat - Exclusion 2 - JL mod - D78] |  |  |  | apparent KD of MS2 coat protein [1]: 99.6 nM; apparent KD of MS2 coat protein [2]: 91.8 nM
3 | AAAAAACAUGAGGAUCACCCAUGUGAGGAUAUGCGAAAAUAAAAUAAAUAAAUAAAAAGCAGAAGGCACACCAA [Mat - Exclusion 1 - Eli mod - D60] |  |  |  | apparent KD of MS2 coat protein [1]: 25.3 nM; apparent KD of MS2 coat protein [2]: 41.1 nM
4 | GGUUGGCGAGGAUAUACAUGAGGAUCACCCAUGUGAGAGAAAAAAGUGAGAAAGAAUAGUAGAAGGCGCUGACG [salish99-ex3-40] |  |  |  | apparent KD of MS2 coat protein [1]: 42.5 nM; apparent KD of MS2 coat protein [2]: 255 nM
5 | AAGAAACAUGAGGAUCACCCAUGUCAGGAUAUUGAAGAAAGAAAGAAAGAAAGAAGAACAAGAAGGGACAAAGG [Gaius Vitrasius Pollio] |  |  |  | apparent KD of MS2 coat protein [1]: 44.3 nM; apparent KD of MS2 coat protein [2]: 33.3 nM
6 | AGGAAACAUGAGGAUCACCCAUGUGAGGAUAUGAACGAAAUAAAAUAAAAAUAAAAGUUCAGAAGGCAUAAAAA [Mat - Exclusion 1 - Eli mod - D7] |  |  |  | apparent KD of MS2 coat protein [1]: 26.8 nM; apparent KD of MS2 coat protein [2]: 24.4 nM
7 | GUUACAUGAGGAUCACCCAUGUAUGUGUGGGAGUAAGUGUCUUAGGAUAUCUGUAAUUUAAUUUAAGAGAAGGAAGAUUGUUGU [JMF's solution 31] (Eterna round: R96, puzzle: Same State NG 3) | 128 | 94.5 | 121 | 
8 | AAAAGAAACACAGGAUAUACCGCACUUAACGCGGUAGAAGGGUGGGACAUGAGGAUCACCCAUGUGGCCUGAGCACCAGGCCGC [Orgele] (Eterna round: R96, puzzle: Same State NG 1) | 47 | 5.38 | 21.8 | 
9 | CCAUAGUACAAUUUAGAUCUACAUGAGGAUCACCCAUGUACUGAGGAUAUCAGCUCGAAUAGAGCUGAGAAGGCAGAAGUACUU [SSNG3/6-A1] (Eterna round: R96, puzzle: Same State NG 3) | 22.6 | 101 | 83.6 | 
10 | AUAACACUGGCAGGAUAUGGGAUUGGAAGUGUUCCAGAAGGGCCAGAACGGCGAUGGACAUGAGGAUCACCCAUGUCUUAGCCU [MOD Powerstrip SSNG 1.4 (Unstable)] (Eterna round: R96, puzzle: Same State NG 1) | 13 | 7.66 | 9.48 | 
11 | CGGGACAUGAGGAUCACCCAUGUGCCGAAAGGCACAAGAACGCAGGAUAUAGGGCAAAGACAGCCCUAGAAGGGUGACCUUGUG [Tiesralabe] (Eterna round: R96, puzzle: Same State NG 3) | 197 | 21.3 | 117 | 
12 | GCUCGAUGAAAGUCCUACAUGAGGAUCACCCAUGUACGUGGGCAGGAUAUUUACAUGCAGAGUGUAGAGAAGGGCCCAUCGAGC [SameState NG3 #61] (Eterna round: R96, puzzle: Same State NG 3) | 18.3 | 50.2 | 76.4 | 
13 | UUUACAUUACGAGGAUAUCAAUUAUUUCAUGUAUGAGAAGGCGUUAUUUUUACUACCUUACAUGAGGAUCACCCAUGUUUCAUU [JR_SSNG1_Sub041] (Eterna round: R96, puzzle: Same State NG 1) |  | 40.3 |  | 
14 | CGUUGUUCCUGAGGAUAUCAGUUGUUUGCAUUAUGAGAAGGCAGUACAUGAGGAUCACCCAUGUUGGGAUUUGAUAGAAUGACG [JR_SSNG1_Sub008] (Eterna round: R96, puzzle: Same State NG 1) | 221 | 113 | 226 | 
15 | CGAUUCGCCAGUACAUGAGGAUCACCCAUGUAGAGACCAGUUUAGGAUAUCUUUGCGACGUGCUGAGAGAAGGGAAUAUGGAGC [Eternabot solution 45] (Eterna round: R96, puzzle: Same State NG 3) | 33.1 | 27.5 | 37.4 | 
16 | UUGCGGGCUUGAGGAUAUUGAGUACAUAUGUUUAACAUGAGGAUCACCCAUGUGGGUUGCGGUAUCGAGAAGGUAACUUCCUAC [salish99_SSNG2_r04_808] (Eterna round: R96, puzzle: Same State NG 2) | 169 | 92.5 | 153 | 

Row | Sequence | apparent KD of MS2 coat protein ([3]; input ligand: FMN 200 uM) [nM] | apparent KD of MS2 coat protein [3, 4] [nM] | apparent KD of MS2 coat protein ([3]; input ligand: none) [nM] | further results
17 | GUAGCAUACCGAGGAUAUUCAUAUACAUGAGGAUCACCCAUGUUAAUAUAGGCCAAAAGGCCUUGGGAGAAGGCGGAAUGCUAC [Xeonanis - 20 Mod11] (Eterna round: R96, puzzle: Same State NG 2) | 9.01 | 9.83 | 13.3 | 
18 | CGUCCGGCCUGUGCUGGCCGGUUGCUUGUACAUGAGGAUCACCCAUGUUCAUGUGCAGGCUUUUUGCUCGUCUUGUG [salish99_mir208a_015] (puzzle: Sensor for hsa-mir-208a) |  |  |  | apparent KD of MS2 coat protein [3, 5]: 38.3 nM; apparent KD of MS2 coat protein [3, 6]: 31.1 nM; apparent KD of MS2 coat protein [3, 7]: 45.8 nM
19 | GUUACAUGAGGAUCACCCAUGUAUGUGUGGGAGUAAGUGUCUUAGGAUAUCUAUGAUUUGAUUUAAGAGAAGGAAGAUUGUUGU [JMF's solution 78] (Eterna round: R96, puzzle: Same State NG 3) | 122 | 80.9 | 110 | 
20 | UGGCUGAGUCGAGGAUAUGAUCUUCAUAUAAUAACAUGAGGAUCACCCAUGUAUAAUUACAUGGAUCAGAAGGCGACUCAGCCA [SSNG2/13-B2] (Eterna round: R96, puzzle: Same State NG 2) |  | 362 |  | 
21 | UAAAGUUAGCGAGGAUAUCGUUUAUUGAAGUUACGAGAAGGCGCUCUUCUUACAUGAGGAUCACCCAUGUCUGUUUUGCAUGAU [JR_SSNG1_Sub067] (Eterna round: R96, puzzle: Same State NG 1) | 52 | 63 | 71.3 | 
22 | AUACAUGAGGAUCACCCAUGUAAUUAAUUAACUAGUAAGAUCUAGGAUAUCAGCUCGAUUAGAGCUGAGAAGGAGAUCACAUGU [SSNG3/21-A2] (Eterna round: R96, puzzle: Same State NG 3) |  | 29.3 |  | 
23 | CCGAUGUGGGUACAGGAUAUGUGGGCCUCCACAUGAGGAUCACCCAUGUCGGAGGCAAUGCGGCUACAGAAGGGUGCGAGCUCGA [Tileorat] (puzzle: Same State 2) |  |  |  | apparent KD of MS2 coat protein [3, 5]: 14.1 nM; apparent KD of MS2 coat protein [3, 6]: 10.9 nM; apparent KD of MS2 coat protein [3, 7]: 13.5 nM
24 | CUGCUACAUGAGGAUCACCCAUGUUGGAGUAAUGCAGGAUAUGUGAGACCAGAAGAUAAAACAGAAGGGCAAGGAG [JR_SS!_Sub008] (puzzle: Same State 1) |  |  |  | apparent KD of MS2 coat protein [3, 5]: 18.8 nM; apparent KD of MS2 coat protein [3, 6]: 20.8 nM; apparent KD of MS2 coat protein [3, 7]: 24.6 nM
25 | AAAAGAAACAUGUACCUGAGUACAUGAAAACAUGAGGAUCACCCAUGUAAUAAGCGGGUGGCUCGUCUUAUAAGAAA [JL pocket 27] (Eterna round: R96, puzzle: Sensor for hsa-mir-208a) | 890 | 70.4 | 715 | 
26 | CCGAUGACAGGACAGGAUAUGACUGUCGUCACAUGAGGAUCACCCAUGUCCCGGCAAUGCCACCGUUAGAAGGGUCCUAUCUCGG [Arxeina] (puzzle: Same State 2) |  |  |  | apparent KD of MS2 coat protein [3, 5]: 16.7 nM; apparent KD of MS2 coat protein [3, 6]: 16.3 nM; apparent KD of MS2 coat protein [3, 7]: 18.2 nM
27 | UGACACACGGCAGGAUAUCGAUAGCAAAGCUAUCGAGAAGGGCCUCAUGUCGUGGAAACGUGACAUGAGGAUCACCCAUGUUGC [Omei SS(NG)1 Cv11] (Eterna round: R96, puzzle: Same State NG 1) | 280 | 8.42 | 51.4 | 
28 | GCUCGGCUGAUGGCCCACAUGAGGAUCACCCAUGUGACUGGGCAGGAUAUCUAGAUGCAGGAUGUAGAGAAGGGCCUGCCGAGC [SameState NG3 #41] (Eterna round: R96, puzzle: Same State NG 3) | 358 | 98.8 | 155 | 
29 | UCUUGGUUUUUGCUCGUUUUUUGUGUUGAACAUGAGGAUCACCCAUGUAUUGUACGGUCCGGUUUAGUAGUGGUCCA [JMF 44] (puzzle: Sensor for hsa-mir-208a) |  |  |  | apparent KD of MS2 coat protein [3, 5]: 118 nM; apparent KD of MS2 coat protein [3, 6]: 92.8 nM; apparent KD of MS2 coat protein [3, 7]: 144 nM
30 | AAAGGCAUGGCACAGGAUAUGCAAUAAAAGACAUGAGGAUCACCCAUGUACCCGAGAAACGGGCAGCAGAAGGGUGUAAAAGAAA [Orrere] (puzzle: Same State 2) |  |  |  | apparent KD of MS2 coat protein [3, 5]: 134 nM; apparent KD of MS2 coat protein [3, 6]: 115 nM; apparent KD of MS2 coat protein [3, 7]: 447 nM
31 | GCCAACUCAUGAGGAUAUGGCACCUUAAUGGUGCCAGAAGGCAUGUCUAUUGACAUGAGGAUCACCCAUGUAUUUUUGUUGGCA [Fiskers NG1ss - 26] (Eterna round: R96, puzzle: Same State NG 1) | 120 | 750 | 1210 | 
